Measured values published in patent US20180291343.

Legend:
[1] = tested on: TALEN Beta2M T01 LEFT (artificial); assay: cell_activity; conditions: primary T cells, 10 ug TALEN mRNA as pair with right monomer, 3 days post electroporation; 38% at 2 ug; untransfected nearly 100% positive
[2] = tested on: TALEN Beta2M T01 RIGHT (artificial); assay: cell_activity; conditions: primary T cells, 10 ug TALEN mRNA as pair with left monomer, 3 days post electroporation; 38% at 2 ug; untransfected nearly 100% positive

Sequence	activity (% beta2-m negative cells) [1]	activity (% beta2-m negative cells) [2]
TGGCCTTAGCTGTGCTC (double strand) [B2M T01 target, left half-site]	80	–
TTCTGGCCTGGAGGCTA (double strand) [B2M T01 target, right half-site]	–	80
